The nature of the data set: yeast display, Sf9 membrane polyspecificity reagent, FACS + sequencing; frameworks hold sequencing errors. The method in brief: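 Galactose-induced (36–48 hours) yeast carrying a synthetic nanobody display library were exposed to 10% biotinylated, detergent-solubilized Sf9 membrane reagent at 4 °C for 1 hour. FACS followed streptavidin microbead enrichment, using low and high (top ~1%) gates for expression (anti-HA) and reagent binding (streptavidin). Colony PCR, MiSeq 2 × 250 sequencing and CDR-length filtering followed. Labels for polyreactivity reflect the gate of origin.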
“QVQLVESGGGLVQAGGSLRLSCAASGRTFLRYRMGWYRQAPGKERELVATISRSGGGTTYADSVKGRFTISRYNAKNTVYLQMNSLKPEDTAVYYCNRDQTYPYQYNRWVGQYKYDYWGQGTQVTVSS”: the “polyreactivity (PSR sort gate)” value is reported as “low polyreactivity”.
As for “QVQLVESGGGLVQAGGSLRLSCAASGRTFLRYTMGWYRQAPGKERELVAAITYSGGSTYYADSVKGRFTISRDNAKNTVYLQMNSLKPEDTAVYYCAASYLWGYTEYYYWGQGTQVTVSS”, the “polyreactivity (PSR sort gate)” value is reported as “high polyreactivity”.
In the case of “QVQLVESGGGLVQAGGSLRLSCAASGRTFLSNAMGWYRQAPGKERELVADITFRGGNTYYADSVKGRFTISRGNAKNTVYLQMNSLKPEDTAVYYCAVLGYGRLSRVRYGYWGQGTQVTVSS”, the “polyreactivity (PSR sort gate)” value is on record as “high polyreactivity”.
As for “QVQLVESGGGLVQAGGSLRLSCAASGRTFLTNAMGWYRPAPGKERELVAAISSGASTNYADSVKGRFTISRDNAKNTVYLQMNSLKPEDTAVYYCAAQLTDYQSKTLSYDYWGQGTQVTVSS”, the “polyreactivity (PSR sort gate)” value is reported as “low polyreactivity”.
Consider “QVQLVESGGGLVQAGGSLRLSCAASGRTFLTNAMGWYRQAPGKERELVAAISGGGDDTFYADSVKGRFTISRDNAKNTVYLQMNSLKPEDTAVYYCAADWYTPGWRKEEEYWGQGTQVTVSS”, for which the “polyreactivity (PSR sort gate)” value is “low polyreactivity”.
Take “QVQLVESGGGLVQAGGSLRLSCAASGRTFLTNTMGWYRQAPGQEREWVATISNGGRTNYADSVKGRFTISRDNAKNTVYLQMNSLKPEDTAVYYCAKDYRAYHPHWYGSTFGWGQGTQVTVSS”: the “polyreactivity (PSR sort gate)” value was “high polyreactivity”.
“QVQLVESGGGLVQAGGSLRLSCAASGRTFLTYAMGWYRQAPGKERELVAAISSSGVRTYYADSVKGRFTISRDNAKNTVYLQMNSLKPEDTAVYYCAAVGTGSSLRYDYWGQGSQVTVSS”: the “polyreactivity (PSR sort gate)” value is on record as “high polyreactivity”.
As for “QVQLVESGGGLVQAGGSLRLSCAASGRTFLVYSMGWYIQAPGKERELVAAISFSDGITYYADSVKGRFTISRDNAKNTVYLQMNRLKPEDTAVYYCATEILDYYYGSEYDYWGQGTQVTVTS”, the “polyreactivity (PSR sort gate)” value was “high polyreactivity”.
Under “QVQLVESGGGLVQAGGSLRLSCAASGRTFLVYVMGWYRQAPGKERELVASITYSGGSTYYADSVKGRFTISRDNAKNTVYLQMNSLKPEDTAVYYCAAAQGRQPYRARGLYYYWGQGTQVTVSS” stands “high polyreactivity”.
Regarding “QVQLVESGGGLVQAGGSLRLSCAASGRTFLWNALGWYRQAPGKESELVARINLSGGRTYYADSVKGRFTISRDNAKNCVYLQMNSLKPEDTAVYYCAATVVRYRRDSWGQGTQVTVSS”, the “polyreactivity (PSR sort gate)” value is reported as “low polyreactivity”.
For “QVQLVESGGGLVQAGGSLRLSCAASGRTFLYNALGWYRQAPGKERELVAAISWSGGSTYYADSVKGRFTISRDNAKNTVYLQMNSLKPEDTAVYYCAATGRRSGFFYWGQCTQVTVSS”, the “polyreactivity (PSR sort gate)” value is recorded as “high polyreactivity”.
Under “QVQLVESGGGLVQAGGSLRLSCAASGRTFLYYAMGWSRQAPGKEMELVAAIRRGSSTYYADSVKGRFTISRDNAKITVYLQRNCPKPEDTAVYYCAARSFAITKYGSYDYWGQGTQVTVSS” stands “high polyreactivity”.
For the sequence “QVQLVESGGGLVQAGGSLRLSCAASGRTFLYYAMGWYRQAPGKERELVAAISSGGSTNYADSVKGRFTISRDNAKNTVYLQMNSLIPEDTAVYDCNADYTSRETSDVIYEYDYWGQATQVTVSS”, the “polyreactivity (PSR sort gate)” value was “low polyreactivity”.
For “QVQLVESGGGLVQAGGSLRLSCAASGRTFLYYAMGWYRQAPGKERELVAGITSGGSTNYADSVKGRFTISRDNAKNTVYLQMNSLKPEETAVYYCAARYFPRIQYGRKGYDYWGQGTQVTVSS”, the “polyreactivity (PSR sort gate)” value is “low polyreactivity”.
With “QVQLVESGGGLVQAGGSLRLSCAASGRTFLYYAMGWYRQAPGKERELVARITLDGGSTNYADSVKGRFTISRDNAKNTVYLQMNSLKPEDTAVYYCAAQRGGPFPRVVDLYDYWGQGTQVTVSS” the entry was “low polyreactivity”; with “QVQLVESGGGLVQAGGSLRLSCAASGRTFLYYAMGWYRQAPGKERELVAVISRDGGSTYYADSVKGRFTISRDNAKNTVYLQMNSLKPEDTAVYYCAKRYGWASGYWNSNYGYLYDYWGQGTQVTVSS”, “high polyreactivity”.
Regarding “QVQLVESGGGLVQAGGSLRLSCAASGRTFNHYAMGLYRQAPGKERELVAGITISGGSTYYADSVKGRFTISRDNAKNTVYLQMNSLKPEDTAVYYCNAVYEYYRHSKWTMDYWGQGTQVTVSS”, the “polyreactivity (PSR sort gate)” value was “low polyreactivity”.
Regarding “QVQLVESGGGLVQAGGSLRLSCAASGRTFNIYDMGGYIPAPGTERELVAAITGRGTGTYYADSVKGRFTISRDNAKNTVYLQMNSLKPEDTAVYFCAAVRRWYYPALSEHDYWGQGTQVTVSS”, the “polyreactivity (PSR sort gate)” value is “low polyreactivity”.
Consider “QVQLVESGGGLVQAGGSLRLSCAASGRTFNLYAMGWYRQAPGKERELVAAIRYSDTSTYYADSVKGRFTISRDNAKNTVYLQMNSVKPEDTAVYYCAAYPGYKGGNYGYWGQGTKVTVSS”, for which the “polyreactivity (PSR sort gate)” value was “low polyreactivity”.
With “QVQLVESGGGLVQAGGSLRLSCAASGRTFNPYAMGWYRQAPGKERELVAAIRWRGTRTYYADSVKGRFTISRDNAKNTVYLQMNSLKPEDTAVYYCNALLGYYRWRRPVDYSYGSWGQGTQVTVSS” the entry was “high polyreactivity”.
“QVQLVESGGGLVQAGGSLRLSCAASGRTFNQYAMGWYRQAPGKERELVAAISRRTGRTYYADSVKGRFTISRDNAKNTVYLQMNSLKPEDTAVYYCNTLYFVGPDYGYDYWGQGTQVTVSS”: the “polyreactivity (PSR sort gate)” value is listed as “high polyreactivity”.
Under “QVQLVESGGGLVQAGGSLRLSCAASGRTFNVYAMGWYRQAPGKERELVASISSSDTTNYADSVKGRFTISRDNAKNTVYIQMNSLKPEDTAVYYCAADYTPDLLSKVDYWGQGTQVTVSS” stands “low polyreactivity”; under “QVQLVESGGGLVQAGGSLRLSCAASGRTFNVYAMGWYRQAPGKERELVAVITNGGSTNYADSVKGRFTISRDNAKNTVYLQMNSLKPEDTAVYYCAGDYYASLTREDRDDYWGQGTQVTVSS”, “low polyreactivity”; under “QVQLVESGGGLVQAGGSLRLSCAASGRTFNYYAMGWYRQAPGKERELVAAISTSGGSTYYADSVKGRFTISRDNAKNTVYLQMNSLKPEDTAVYYCNAVYRVWYAEWSTVGSPHDYWGQGTQVTVSS”, “low polyreactivity”.
Take “QVQLVESGGGLVQAGGSLRLSCAASGRTFNYYNMGWYRQAPGKARELVAAISRGGTTYYADSVKGRFTISRDNAKKTVYLQMNSLKPEDTAVYYCAVAYAPRVQTVWSYVSGSTYYSSGQGTQVTVSS”: the “polyreactivity (PSR sort gate)” value is on record as “high polyreactivity”.
As to “QVQLVESGGGLVQAGGSLRLSCAASGRTFNYYNMGWYRQAPGKERELVAAISRGGTTYYADSVKGRFTISRDNAKKTVYLQMNSLKPEDTAVYYCAVAYAPRVQTVWSYVSGSTYYSWGQGTQVTVSS”, the “polyreactivity (PSR sort gate)” value is recorded as “high polyreactivity”.
With “QVQLVESGGGLVQAGGSLRLSCAASGRTFPAYAMGWYRQAPGKERELVAAISYSGGRTRYADSVKGRFTISRDNAMNSVYLQMNSLKPEDTAVYFCNRVIPTQSLRDYYWGQGTQVTVSS” the entry was “high polyreactivity”; with “QVQLVESGGGLVQAGGSLRLSCAASGRTFPDNAMGWYRQAPGKESEFVAAISSSGSTYYADSVKGRFTISRDNAKNTVYLQMNSLKPEDTAVYYCNRDDWPSYDFTGGDYWGQGTQVTVSS”, “low polyreactivity”.
With “QVQLVESGGGLVQAGGSLRLSCAASGRTFPDYAMGWYRQAPGKERELVARISYSGGSTSYADSVKGRFTISRDNAKNTVYLQMNSLKPEDTAVYYCNRETAYAVGRFEYCGQGTQVTVSS” the entry was “low polyreactivity”.
Under “QVQLVESGGGLVQAGGSLRLSCAASGRTFPFNAMGWYRQAPGKERELVAAIRWSGGSTYYADSVKGRFTISRDNAKNTVYLQMNSLKPEDTAVYYCAAVYPKIRSYRYGYWGQGTQVTVSS” stands “high polyreactivity”; under “QVQLVESGGGLVQAGGSLRLSCAASGRTFPGNAMGWYRQAPGKERELVAAINSRGSTYYADSVKGRFTISRDNAKHTVYLKMNSLKPEDTAVYYSAAYFGHYWRYYYWGQGTQVNVSS”, “high polyreactivity”.
For the sequence “QVQLVESGGGLVQAGGSLRLSCAASGRTFPGNAMGWYRQAPGKERELVAAISWSGTRTYYADSVKGRFTISRDNAKHTVYLQMNSLKPEDTAVYYCNVVVKGAWDYYPYDYWGQGTQVTVSS”, the “polyreactivity (PSR sort gate)” value was “high polyreactivity”.
Regarding “QVQLVESGGGLVQAGGSLRLSCAASGRTFPGNDMGWYRQAPGKERELDAAISSDDSTYYADSVKWRFTMSRDNAKNTVYLKMNSLKPEDTAVYYCNAEYYEGYIGVPGSYWPYEYWGQGTQVTVSS”, the “polyreactivity (PSR sort gate)” value is given as “low polyreactivity”.
As for “QVQLVESGGGLVQAGGSLRLSCAASGRTFPGYAMGWYRQAAGTERELVAGISYRGGSTYYADSVKGRFTISRDNAKNTVYLQMNSLKPEDTAVYYCARDYSRHKGDYWGQGTQVTVSS”, the “polyreactivity (PSR sort gate)” value is on record as “low polyreactivity”.
For “QVQLVESGGGLVQAGGSLRLSCAASGRTFPGYAMGWYRQAPGKERELVAGISYRGGSTYYADSVKGRFTISRDIAKNTVYLQMNSLKPEDTAVYYCAREYSRHKGDYWGQGTQVTVSS”, the “polyreactivity (PSR sort gate)” value is “low polyreactivity”.
Under “QVQLVESGGGLVQAGGSLRLSCAASGRTFPINAMGWYRQAPGKERELVASIRWTDGTTYYADSVKGRFTISRDSAKNTVYLQMNSLKPEDTAVFYCAADAEGSASKYDYWGQGTQVTVSS” stands “low polyreactivity”; under “QVQLVESGGGLVQAGGSLRLSCAASGRTFPIYAMGWYRQAPGKERELVATITWNDGNTYYADSVKGRFTISRDNAKNTVYLQMNSLKPEDTAVYYCAAKGGWPWHYHYQKNSEYDYWGQGTQVTVSS”, “low polyreactivity”; under “QVQLVESGGGLVQAGGSLRLSCAASGRTFPLNAMGWYRQAPGKERELVASITKSTGNTRYADSVKGRFTISRDNAKNTVYLQMNSLKPEDTAVYYCAARSYRDRYYWGQGTQVTVSS”, “high polyreactivity”.
As to “QVQLVESGGGLVQAGGSLRLSCAASGRTFPNNAMGWYRQAPGKERELVAVITWSGGSTYYADSVKGRFTISRDNAKNTVYLQMNSLKPEDTAVYYCATDYTGKWKDHYYYWGQGTQVTVSS”, the “polyreactivity (PSR sort gate)” value is “low polyreactivity”.
With “QVQLVESGGGLVQAGGSLRLSCAASGRTFPRNGMGWYRQAPGKERELVAAISWSGGRTYYADSVKGRFTISRDNAKNTVYLQMNSLKPEDTAVYYCNALYFRKAGYWGKGTQVTVSS”, the “polyreactivity (PSR sort gate)” value is on record as “high polyreactivity”.
